Data taken from article PMC10104862.

Biological target: Flag-TRF2 (Telomeric repeat-binding factor 2), wild type (not stated (human or mouse cDNA cloned)) (UniProt Q15554)
Assay: co-IP; 293T or U2OS cells co-transfected with epitope-tagged cDNAs, lysed 48 h later in BCO 300 buffer (20 mM HEPES pH 7.5, 10% glycerol, 1 mM EDTA, 0.1% NP-40); Flag M2 affinity gel; SDS-PAGE and blot

UniProt Q15554, sequence (Q15554 whole entry): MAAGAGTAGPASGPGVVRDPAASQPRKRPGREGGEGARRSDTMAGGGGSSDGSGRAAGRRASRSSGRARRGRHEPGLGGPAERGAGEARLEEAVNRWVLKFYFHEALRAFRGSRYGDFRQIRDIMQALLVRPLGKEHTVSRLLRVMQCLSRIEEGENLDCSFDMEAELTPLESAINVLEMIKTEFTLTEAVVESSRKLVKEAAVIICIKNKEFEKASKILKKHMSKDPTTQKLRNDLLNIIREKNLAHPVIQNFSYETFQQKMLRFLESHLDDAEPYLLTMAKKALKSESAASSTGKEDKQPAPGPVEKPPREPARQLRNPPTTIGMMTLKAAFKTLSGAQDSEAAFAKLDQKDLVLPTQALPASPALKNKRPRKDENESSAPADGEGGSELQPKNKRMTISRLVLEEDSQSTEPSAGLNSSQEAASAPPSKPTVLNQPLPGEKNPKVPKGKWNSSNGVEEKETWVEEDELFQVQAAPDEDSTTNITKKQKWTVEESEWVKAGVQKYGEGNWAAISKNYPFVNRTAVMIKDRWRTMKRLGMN

- fold binding relative to TRF2^ΔB: 3 fold
Substance: ADAR1p110, wild type (expressed construct) (natural protein)
